These results are taken from patent publication US20210371539A1 (Genmab, published 2021).

First the molecules themselves.
T1: Human CD20 (human, UniProt P11836 1-297)
T1 construct: Endogenous CD20 on the human lymphoma cell line Daudi
T1 sequence: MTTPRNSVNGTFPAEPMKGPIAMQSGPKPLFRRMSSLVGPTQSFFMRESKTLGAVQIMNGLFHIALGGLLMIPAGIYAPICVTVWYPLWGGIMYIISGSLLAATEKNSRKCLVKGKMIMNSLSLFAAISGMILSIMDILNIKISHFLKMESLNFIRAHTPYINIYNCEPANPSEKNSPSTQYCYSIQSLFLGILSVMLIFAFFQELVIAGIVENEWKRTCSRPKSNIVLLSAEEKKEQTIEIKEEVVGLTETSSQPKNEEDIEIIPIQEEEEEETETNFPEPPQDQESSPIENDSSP

T2: Human CD37 (human, UniProt P11049 1-281)
T2 construct: Endogenous CD37 on the human lymphoma cell line Daudi; also called Leukocyte Antigen CD37; GP52-40
T2 sequence: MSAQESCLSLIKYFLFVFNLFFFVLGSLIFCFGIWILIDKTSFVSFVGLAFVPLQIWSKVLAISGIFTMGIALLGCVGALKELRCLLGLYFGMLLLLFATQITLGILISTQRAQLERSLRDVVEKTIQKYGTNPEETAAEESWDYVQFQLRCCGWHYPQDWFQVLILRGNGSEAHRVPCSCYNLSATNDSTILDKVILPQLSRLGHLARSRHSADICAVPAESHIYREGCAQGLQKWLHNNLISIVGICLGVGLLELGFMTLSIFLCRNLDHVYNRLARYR

B1: IgG1-CD20-11B8-E430G (antibody, V domains shown)
VH: EVQLVQSGGGLVHPGGSLRLSCTGSGFTFSYHAMHWVRQAPGKGLEWVSIIGTGGVTYYADSVKGRFTISRDNVKNSLYLQMNSLRAEDMAVYYCARDYYGAGSFYDGLYGMDVWGQGTTVTVSS
VL: EIVLTQSPATLSLSPGERATLSCRASQSVSSYLAWYQQKPGQAPRLLIYDASNRATGIPARFSGSGSGTDFTLTISSLEPEDFAVYYCQQRSDWPLTFGGGTKVEIKR
modifications: Conjugated to Alexa Fluor 555 or 647 in the FRET assays only (about 3 dyes per antibody, sites not stated).
notes: IgG1 kappa with E430G (EU numbering) in the Fc; also called Hx-CD20-11B8; Hx-CD20-11B
B2: IgG1-CD20-11B8 (antibody, V domains shown)
VH: B1 VH
VL: EIVLTQSPATLSLSPGERATLSCRASQSVSSYLAWYQQKPGQAPRLLIYDASNRATGIPARFSGSGSGTDFTLTISSLEPEDFAVYYCQQRSDWPLTFGGGTKVEIK
notes: Expressed as IgG1 kappa with wild type Fc; In the FRET assays it was conjugated to Alexa Fluor 555 or 647; also called WT type II CD20 antibody IgG1-CD20-11B8
B3: IgG1-CD37-37.3-E430G (antibody, V domains shown)
VH: QVQVKESGPGLVAPSQSLSITCTVSGFSLTTSGVSWVRQPPGKGLEWLGVIWGDGSTNYHSALKSRLSIKKDHSKSQVFLKLNSLQTDDTATYYCAKGGYSLAHWGQGTLVTVSA
VL: DIQMTQSPASLSVSVGETVTITCRASENIRSNLAWYQQKQGKSPQLLVNVATNLADGVPSRFSGSGSGTQYSLKINSLQSEDFGTYYCQHYWGTTWTFGGGTKLEIKR
modifications: Conjugated to Alexa Fluor 555 or 647 in the FRET assays only (about 3 dyes per antibody, sites not stated).
notes: IgG1 kappa with E430G (EU numbering) in the Fc; also called hexamerization-enhanced CD37 antibody
B4: IgG1-CD37-37.3 (antibody, V domains shown)
VH: B3 VH
VL: DIQMTQSPASLSVSVGETVTITCRASENIRSNLAWYQQKQGKSPQLLVNVATNLADGVPSRFSGSGSGTQYSLKINSLQSEDFGTYYCQHYWGTTWTFGGGTKLEIK
notes: Expressed as IgG1 kappa with wild type Fc; In the FRET assays it was conjugated to Alexa Fluor 555 or 647 (about 3 dye molecules per antibody)

One test deals with T1, Human CD20. As to the kind of experiment: flow cytometry FRET with fluorophore-conjugated antibodies on Daudi cells. How it is done: (§1) 0.5×10⁶ Daudi cells/well were incubated with 10 μg/mL A555-conjugated donor antibodies and/or 10 μg/mL A647-conjugated acceptor antibodies in a total volume of 100 μL RPMI/0.2% BSA in 96-well round-bottom plates (Greiner Bio-One, Cat No 650101) for 15 minutes at 37° C. in a water bath. Cells were washed twice with FACS buffer, pelleted by centrifugation (3 min at 300×g) and resuspended in 200 μL PBST. Mean fluorescence intensities (MFI) were determined by flow cytometry on a FACS Canto II (BD Biosciences) by recording 10,000 events at 585/42 nm (FL2, donor A555) and […] (FL3), both excited at 488 nm, and at 660/20 nm (FL4, acceptor A647), excited at 635 nm. Unquenched donor fluorescence intensity was determined from cells incubated with only A555-conjugated donor antibodies, and non-enhanced acceptor intensity was determined from cells incubated with only A647-conjugated acceptor antibodies. Proximity-induced FRET was determined by measuring the energy transfer between cells incubated with both A555-conjugated donor and A647-conjugated acceptor antibodies. MFI values were used to calculate FRET according to the following equation: energy transfer (ET)=FL3(D,A)−FL2(D,A)/a−FL4(D,A)/b, wherein a=FL2(D)/FL3(D), b=FL4(A)/FL3(A), D is donor, A is acceptor and FLn (D,A)=donor+acceptor. ET values obtained were normalized according to the following equation: normalized energy transfer (%)=100*ET/FL3(D, A).

The test “IgG1-CD37-37.3-E430G” deals with B3. As to the kind of experiment: FRET by flow cytometry, A555/A647-conjugated antibodies on Daudi cells; Fc-Fc interaction between cell-bound antibodies. The procedure:
as §1, with “ET values obtained were normalized according to the following equation: normalized energy transfer (%)=100*ET/FL3(D, A).” left out

Test [1] deals with T2, Human CD37. As to the kind of experiment: conclusion from CDC assays on Daudi and WIL2-S cells.
For test [2], the target named is T2, Human CD37. The test is described as follows: flow cytometry FRET with fluorophore-conjugated antibodies on Daudi cells. The procedure:
as §1

As to B1, the binding result with Human CD20 and with IgG1-CD37-37.3-E430G was “binds” each time.
For the molecule B2, the binding result with Human CD20 is “binds”.
On to B3, for which the binding result in the test with Human CD37 [1] is reported as “binds”.
Consider B4, for which the binding result with Human CD37 [2] is given as “binds”.
